Here are results for two molecules from paper doi:10.1101/731679, “Structural insights into the mechanism of the human soluble guanylate cyclase” (bioRxiv, 2019).

Test [1] deals with T1, cys-less human sGC α1 subunit with L275C (α1^CL L275C), C-terminal GFP-strep (human, UniProt Q02108 64-690, C176A | C239A | C669S | C455Y | C460G | L275C).
T1 construct: soluble guanylate cyclase α1 subunit, human; the cys-rich N-terminal 63 amino acids removed; cys-less background plus L275C; also called α1 L275C; source: HEK293F, transfected (BacMam vector), purified with β1 on Streptactin Beads 4FF; not shown: GFP, C-terminal, kept; strep, C-terminal, kept
T1 sequence (looked up): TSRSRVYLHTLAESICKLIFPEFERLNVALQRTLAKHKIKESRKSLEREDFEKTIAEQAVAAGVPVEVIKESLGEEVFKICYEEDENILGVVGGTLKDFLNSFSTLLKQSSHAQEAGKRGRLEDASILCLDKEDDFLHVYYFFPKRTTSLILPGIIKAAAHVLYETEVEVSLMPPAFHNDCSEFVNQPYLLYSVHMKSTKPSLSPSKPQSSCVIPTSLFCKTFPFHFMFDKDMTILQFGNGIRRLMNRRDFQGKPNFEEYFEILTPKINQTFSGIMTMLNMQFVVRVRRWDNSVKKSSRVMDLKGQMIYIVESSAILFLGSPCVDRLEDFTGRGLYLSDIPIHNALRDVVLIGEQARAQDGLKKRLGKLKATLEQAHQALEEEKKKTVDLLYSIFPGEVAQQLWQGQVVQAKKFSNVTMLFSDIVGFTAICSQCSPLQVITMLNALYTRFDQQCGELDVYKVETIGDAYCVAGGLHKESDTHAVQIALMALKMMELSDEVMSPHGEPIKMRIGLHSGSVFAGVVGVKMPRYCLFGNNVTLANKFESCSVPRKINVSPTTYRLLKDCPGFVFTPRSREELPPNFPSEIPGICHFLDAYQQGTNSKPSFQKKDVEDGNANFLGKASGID
The test is described as follows: cross-linking; disulfide cross-linking of Streptactin-purified cys-less sGC with 0.1 mM Cu(II)(1,10-phenanthroline)3 on ice for 30 min; SDS-PAGE non-reducing or reducing (100 mM DTT); in-gel GFP fluorescence of α1. Particulars: both partners purified.

Test [2] concerns the target T2, cys-less human sGC α1 subunit with L425C (α1^CL L425C), C-terminal GFP-strep (human, UniProt Q02108 64-690, C176A | C239A | C669S | C455Y | C460G | L425C).
T2 construct: soluble guanylate cyclase α1 subunit, human; the cys-rich N-terminal 63 amino acids removed; cys-less background plus L425C; also called α1 L425C; source: HEK293F, transfected (BacMam vector), purified with β1 on Streptactin Beads 4FF; not shown: GFP, C-terminal, kept; strep, C-terminal, kept
T2 sequence (looked up): T1 sequence (looked up) with C212L, L362C
The description is as above. The settings on record: both partners purified.

Where a chain is given by its changes, count along the chain named. Names may count otherwise.

B1: cys-less human sGC β1 subunit with A316C (β1^CL A316C), without tags (natural protein, UniProt Q02153 1-619, looked up)
chain: MYGFVNHALELLVIRNYGPEVWEDIKKEAQLDEEGQFLVRIIYDDSKTYDLVAAASKVLNLNAGEILQMFGKMFFVFCQESGYDTILRVLGSNVREFLQNLDALHDHLATIYPGMRAPSFRCTDAEKGKGLILHYYSEREGLQDIVIGIIKTVAQQIHGTEIDMKVIQQRNEECDHTQFLIEEKESKEEDFYEDLDRFEENGTQESRISPYTFCKAFPFHIIFDRDLVVTQCGNAIYRVLPQLQPGNCSLLSVFSLVRPHIDISFHGILSHINTVFVLRSKEGLLDVEKLENEDELTGTEISCLRLKGQMIYLPECDSILFLCSPSVMNLDDLTRRGLYLSDIPLHDATRDLVLLGEQFREEYKLTQELEILTDRLQLTLRALEDEKKKTDTLLYSVLPPSVANELRHKRPVPAKRYDNVTILFSGIVGFNAFCSKHASGEGAMKIVNLLNDLYTRFDTLTDSRKNPFVYKVETVGDKYMTVSGLPEPCIHHARSICHLALDMMEIAGQVQVDGESVQITIGIHTGEVVTGVIGQRMPRYCLFGNTVNLTSRTETTGEKGKINVSEYTYRCLMSPENSDPQFHLEHRGPVSMKGKKEPMQVWFLSRKNTGTEETKQDDD
notes: soluble guanylate cyclase β1 subunit, human; cys-less background (C292N) plus A316C; The PDB entries are of the wild-type parent; also called β1 A316C; source: HEK293F, transfected (BacMam vector), purified with α1 on Streptactin Beads 4FF
Take B1: the binding result in test [1] is on record as “binds”.

B2: cys-less human sGC β1 subunit with L365C (β1^CL L365C), without tags (natural protein, UniProt Q02153 1-619, looked up)
chain: B1 chain with C316A, L365C
notes: soluble guanylate cyclase β1 subunit, human; cys-less background (C292N) plus L365C; The PDB entries are of the wild-type parent; also called β1 L365C; source: HEK293F, transfected (BacMam vector), purified with α1 on Streptactin Beads 4FF
On to B2, for which the binding result in test [2] is reported as “binds”.
